Reference: the supplement of paper PMC11316812
± gives the standard deviation of the averaged measurements.

What was measured:
hTERT-HMEC = assay: percentage of EdU-negative (G0-arrested) nuclei per well, 72 h; higher = more G0 arrest; conditions: reference: sequence is the full UniProt precursor, the tested protein was the secreted form or ectodomain
MCF7 = assay: as above; conditions: reference: sequence is the full UniProt precursor, the tested protein was the secreted form or ectodomain
[1] = protein concentration 0.0225 µM
[2] = protein concentration 0.0357143 µM
[3] = protein concentration 0.357143 µM
[4] = protein concentration 0.0257143 µM
[5] = protein concentration 0.257143 µM
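Note: secreted proteins added to cultured cells, EdU pulse at the end, nuclei found by Hoechst imaging, EdU status from nuclear versus surrounding ring intensity ratio, PBS as neutral control.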

| Sequence | percentage of EdU-negative (hTERT-HMEC; [1]) [%] | percentage of EdU-negative (hTERT-HMEC; protein concentration 0.225 µM) [%] | percentage of EdU-negative (MCF7; [1]) [%] | percentage of EdU-negative (MCF7; protein concentration 0.225 µM) [%] | further results |
| --- | --- | --- | --- | --- | --- |
| MKLKLKNVFLAYFLVSIAGLLYALVQLGQPCDCLPPLRAAAEQLRQKDLRISQLQAELRRPPPAPAQPPEPEALPTIYVVTPTYARLVQKAELVRLSQTLSLVPRLHWLLVEDAEGPTPLVSGLLAASGLLFTHLVVLTPKAQRLREGEPGWVHPRGVEQRNKALDWLRGRGGAVGGEKDPPPPGTQGVVYFADDDNTYSRELFEEMRWTRGVSVWPVGLVGGLRFEGPQVQDGRVVGFHTAWEPSRPFPVDMAGFAVALPLLLDKPNAQFDSTAPRGHLESSLLSHLVDPKDLEPRAANCTRVLVWHTRTEKPKMKQEEQLQRQGRGSDPAIEV | 6.2 ± 0.23 | 9.73 ± 0.47 | 24 ± 0.88 | 27.1 ± 1.6 | – |
| MKLLFPIFASLMLQYQVNTEFIGLRRCLMGLGRCRDHCNVDEKEIQKCKMKKCCVGPKVVKLIKNYLQYGTPNVLNEDVQEMLKPAKNSSAVIQRKHILSVLPQIKSTSFFANTNFVIIPNATPMNSATISTMTPGQITYTATSTKSNTKESRDSATASPPPAPPPPNILPTPSLELEEAEEQ [Q9H1M3] | 4.86 ± 0.34 | 4.66 ± 0.73 | 23.2 ± 1.2 | 25.3 ± 1.1 | – |
| MKLLHVFLLFLCFHLRFCKVTYTSQEDLVEKKCLAKKYTHLSCDKVFCQPWQRCIEGTCVCKLPYQCPKNGTAVCATNRRSFPTYCQQKSLECLHPGTKFLNNGTCTAEGKFSVSLKHGNTDSEGIVEVKLVDQDKTMFICKSSWSMREANVACLDLGFQQGADTQRRFKLSDLSINSTECLHVHCRGLETSLAECTFTKRRTMGYQDFADVVCYTQKADSPMDDFFQCVNGKYISQMKACDGINDCGDQSDELCCKACQGKGFHCKSGVCIPSQYQCNGEVDCITGEDEVGCAGFASVTQEETEILTADMDAERRRIKSLLPKLSCGVKNRMHIRRKRIVGGKRAQLGDLPWQVAIKDASGITCGGIYIGGCWILTAAHCLRASKTHRYQIWTTVVDWIHPDLKRIVIEYVDRIIFHENYNAGTYQNDIALIEMKKDGNKKDCELPRSIPACVPWSPYLFQPNDTCIVSGWGREKDNERVFSLQWGEVKLISNCSKFYGNRFYEKEMECAGTYDGSIDACKGDSGGPLVCMDANNVTYVWGVVSWGENCGKPEFPGVYTKVANYFDWISYHVGRPFISQYNV | – | – | – | – | percentage of EdU-negative (hTERT-HMEC; protein concentration 0.021 µM): 4.11 ± 0.1%; percentage of EdU-negative (hTERT-HMEC; protein concentration 0.21 µM): 4.288 ± 0.024%; percentage of EdU-negative (MCF7; protein concentration 0.021 µM): 24.6 ± 0.98%; percentage of EdU-negative (MCF7; protein concentration 0.21 µM): 27.3 ± 1.3% |
| MKLMVLVFTIGLTLLLGVQAMPANRLSCYRKILKDHNCHNLPEGVADLTQIDVNVQDHFWDGKGCEMICYCNFSELLCCPKDVFFGPKISFVIPCNNQ | 5.85 ± 0.5 | 6.71 ± 0.2 | 25.5 ± 2.2 | 25.5 ± 3.6 | – |
| MKLNLVQIFFMLLMLLLGLGMGLGLGLHMATAVLEESDQPLNEFWSSDSQDKAEATEEGDGTQTTETLVLSNKEVVQPGWPEDPILGEDEVGGNKMLRASALFQSNKDYLRLDQTDRECNDMMAHKMKEPSQSCIAQYAFIHEDLNTVKAVCNSPVIACELKGGKCHKSSRPFDLTLCELSQPDQVTPNCNYLTSVIKKHIIITCNDMKRQLPTGQ [Q5GAN6] | 5.66 ± 1.3 | 5.77 ± 0.33 | 27.3 ± 3.4 | 25.2 ± 0.41 | – |
| MKLPLLLALLFGAVSALHLRSETSTFETPLGAKTLPEDEETPEQEMEETPCRELEEEEEWGSGSEDASKKDGAVESISVPDMVDKNLTCPEEEDTVKVVGIPGCQTCRYLLVRSLQTFSQAWFTCRRCYRGNLVSIHNFNINYRIQCSVSALNQGQVWIGGRITGSGRCRRFQWVDGSRWNFAYWAAHQPWSRGGHCVALCTRGGHWRRAHCLRRLPFICSY | 5.28 ± 0.63 | 4.45 ± 0.14 | 26.5 ± 0.76 | 29 ± 0.95 | – |
| MKLQCVSLWLLGTILILCSVDNHGLRRCLISTDMHHIEESFQEIKRAIQAKDTFPNVTILSTLETLQIIKPLDVCCVTKNLLAFYVDRVFKDHQEPNPKILRKISSIANSFLYMQKTLRQCQEQRQCHCRQEATNATRVIHDNYDQLEVHAAAIKSLGELDVFLAWINKNHEVMFSA [Q9UHD0] | – | – | – | – | percentage of EdU-negative (hTERT-HMEC; [2]): 5.09 ± 0.068%; percentage of EdU-negative (hTERT-HMEC; [3]): 6.97 ± 1.1%; percentage of EdU-negative (MCF7; [2]): 24.3 ± 3%; percentage of EdU-negative (MCF7; [3]): 27.41 ± 0.059% |
| MKLSGMFLLLSLALFCFLTGVFSQGGQVDCGEFQDPKVYCTRESNPHCGSDGQTYGNKCAFCKAIVKSGGKISLKHPGKC [Q6UWN8] | – | – | – | – | percentage of EdU-negative (hTERT-HMEC; [4]): 4.92 ± 0.69%; percentage of EdU-negative (hTERT-HMEC; [5]): 5.15 ± 0.39%; percentage of EdU-negative (MCF7; [4]): 24.2 ± 1.2%; percentage of EdU-negative (MCF7; [5]): 27.2 ± 3% |
